# In the supplement of paper PMC10065799, “High-throughput profiling of sequence recognition by tyrosine kinases and SH2 domains using bacterial peptide display” (eLife, 2023):
# Tested on: AncSZ
# Assay: phosphorylation enrichment, bacterial display (enrichment ratio); higher = better substrate or ligand; peptides without Tyr show the background
# 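Further: 11-residue human phosphosite peptides and single-mutation variants displayed on the E. coli surface, counted by deep sequencing, each peptide's frequency after selection divided by its frequency in the unselected input library; frequency after pTyr selection over input frequency; kinase dosed for 20-30% of maximal phosphorylation in three min.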
row,Sequence,phosphorylation enrichment
1,IDSTPYRQWFE [RPS8_Y109_YF],0.739
2,FETSHYPASPD [CTNND2_Y1217_YF],0.52
3,NPIGLYSAETL [LDB3_Y202],0.691
4,QELRRYLESGV [MICA_Y194_K196E],0.597
5,KTSGNYLPVTG [WDR19_Y28_A30P],0.519
6,IRYPPYTDWNQ [ALDH3B2_Y365_H361R],0.781
7,LHVKMYNFLRS [ADGRG7_Y760_R756H],1.97
8,KSDVVYTDWKK [ORM1_Y175],0.856
9,RLVTRYIFNRE [HLA-DQB1_Y62_Y58L_YF],0.639
10,GVPLGYPIKAS [ELN_Y206_P211S],0.438
11,DAANNYARGHY [TUBA3E_Y103_S101N],0.691
12,REVPVYISEDS [SYNM_Y460_G462S],2.34
13,GKSDPYHATTG [GJA1_Y247_S251T],0.396
14,RGSQQYRALPV [TUBB8_Y281_T285P],0.618
15,YNDSTYNQQLI [ZPLD1_Y198],0.801
16,LLFRVYGLESL [INSR_Y94],1.88
17,TNFCLYLRSLE [MTM1_Y71_R69C_YF],1.62

row,Sequence,phosphorylation enrichment
1,EVDGLYREAPI [MYL12B_Y143_E141G],0.879
2,EITSHYRHLLR [ZBTB46_Y14],0.733
3,KPNMNYDKLSR [FLI1_Y332],0.548
4,YDGKDYIALKE [HLA-A_Y147_N151K],1.12
5,PLDGEYFTLHI [TP53_Y327_Q331H],2.49
6,SHGKQYRVPSD [HHIPL2_Y395_R394Q],0.54
7,TKEPKYGGAGS [KIAA1210_Y1615_E1616G],0.5
8,AKKIKYFEGVS [PRKDC_Y682],0.429
9,AEPNIYQEKLS [USP54_Y1233_D1231N],0.763
10,YETVKYINNER [ABCB7_Y345_F346I],0.858
11,WVFNHYRWFIW [BRCA2_Y2624_I2627F_YF],1.13
12,GSIQQYTYKQE [PRG4_Y1271_I1272T],0.773
13,EPVSDYINANI [PTPN11_Y304],0.997
14,KEELAYLKKNH [KRT14_Y248],0.597
15,NFATLYLKIYH [PDE6B_Y219],0.989
16,LRVGFYESDVM [A2M_Y708],2.97

# Target: EPHB1 (UniProt P54762)
# Assay: as above
# EPHB1, sequence (P54762 whole entry, looked up): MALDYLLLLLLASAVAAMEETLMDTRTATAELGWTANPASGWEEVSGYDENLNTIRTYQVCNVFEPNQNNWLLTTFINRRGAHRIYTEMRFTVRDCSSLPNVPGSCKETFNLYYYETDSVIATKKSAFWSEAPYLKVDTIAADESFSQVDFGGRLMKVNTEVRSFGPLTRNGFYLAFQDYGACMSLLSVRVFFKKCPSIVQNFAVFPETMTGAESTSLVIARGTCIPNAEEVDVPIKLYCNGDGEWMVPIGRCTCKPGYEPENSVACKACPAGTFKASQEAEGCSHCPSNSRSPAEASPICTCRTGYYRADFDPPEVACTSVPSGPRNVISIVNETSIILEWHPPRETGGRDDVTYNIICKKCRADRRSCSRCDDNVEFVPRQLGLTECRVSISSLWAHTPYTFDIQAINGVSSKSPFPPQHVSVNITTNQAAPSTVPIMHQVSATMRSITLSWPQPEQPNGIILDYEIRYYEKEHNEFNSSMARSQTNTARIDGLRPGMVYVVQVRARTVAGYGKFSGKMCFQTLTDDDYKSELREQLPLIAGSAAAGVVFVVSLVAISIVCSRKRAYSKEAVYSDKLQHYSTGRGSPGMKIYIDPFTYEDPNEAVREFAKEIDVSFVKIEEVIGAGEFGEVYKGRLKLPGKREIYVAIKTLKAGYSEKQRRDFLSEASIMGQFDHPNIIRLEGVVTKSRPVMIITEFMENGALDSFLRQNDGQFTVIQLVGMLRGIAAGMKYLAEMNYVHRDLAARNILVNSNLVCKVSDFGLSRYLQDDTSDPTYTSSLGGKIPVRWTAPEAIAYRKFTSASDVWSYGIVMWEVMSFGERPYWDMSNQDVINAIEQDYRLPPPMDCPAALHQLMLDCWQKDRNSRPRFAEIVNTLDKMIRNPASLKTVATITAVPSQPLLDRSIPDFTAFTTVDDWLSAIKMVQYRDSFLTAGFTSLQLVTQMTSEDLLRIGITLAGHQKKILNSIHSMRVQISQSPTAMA
row,Sequence,phosphorylation enrichment
1,IDSTPYRQWFE [RPS8_Y109_YF],0.487
2,FETSHYPASPD [CTNND2_Y1217_YF],0.483
3,NPIGLYSAETL [LDB3_Y202],1.73
4,QELRRYLESGV [MICA_Y194_K196E],0.749
5,KTSGNYLPVTG [WDR19_Y28_A30P],0.474
6,IRYPPYTDWNQ [ALDH3B2_Y365_H361R],0.428
7,LHVKMYNFLRS [ADGRG7_Y760_R756H],0.831
8,KSDVVYTDWKK [ORM1_Y175],0.44
9,RLVTRYIFNRE [HLA-DQB1_Y62_Y58L_YF],0.477
10,GVPLGYPIKAS [ELN_Y206_P211S],0.327
11,DAANNYARGHY [TUBA3E_Y103_S101N],0.412
12,REVPVYISEDS [SYNM_Y460_G462S],1.3
13,GKSDPYHATTG [GJA1_Y247_S251T],0.287
14,RGSQQYRALPV [TUBB8_Y281_T285P],0.533
15,YNDSTYNQQLI [ZPLD1_Y198],0.521
16,LLFRVYGLESL [INSR_Y94],0.96
17,TNFCLYLRSLE [MTM1_Y71_R69C_YF],0.895

row,Sequence,phosphorylation enrichment
1,EVDGLYREAPI [MYL12B_Y143_E141G],0.503
2,EITSHYRHLLR [ZBTB46_Y14],0.417
3,KPNMNYDKLSR [FLI1_Y332],0.494
4,YDGKDYIALKE [HLA-A_Y147_N151K],0.669
5,PLDGEYFTLHI [TP53_Y327_Q331H],0.808
6,SHGKQYRVPSD [HHIPL2_Y395_R394Q],0.35
7,TKEPKYGGAGS [KIAA1210_Y1615_E1616G],0.431
8,AKKIKYFEGVS [PRKDC_Y682],0.324
9,AEPNIYQEKLS [USP54_Y1233_D1231N],0.401
10,YETVKYINNER [ABCB7_Y345_F346I],0.73
11,WVFNHYRWFIW [BRCA2_Y2624_I2627F_YF],0.654
12,GSIQQYTYKQE [PRG4_Y1271_I1272T],0.45
13,EPVSDYINANI [PTPN11_Y304],0.433
14,KEELAYLKKNH [KRT14_Y248],0.413
15,NFATLYLKIYH [PDE6B_Y219],0.564
16,LRVGFYESDVM [A2M_Y708],1.86

# Target: EPHB2 (UniProt P29323)
# Assay: as above
# EPHB2, sequence (P29323 whole entry, looked up): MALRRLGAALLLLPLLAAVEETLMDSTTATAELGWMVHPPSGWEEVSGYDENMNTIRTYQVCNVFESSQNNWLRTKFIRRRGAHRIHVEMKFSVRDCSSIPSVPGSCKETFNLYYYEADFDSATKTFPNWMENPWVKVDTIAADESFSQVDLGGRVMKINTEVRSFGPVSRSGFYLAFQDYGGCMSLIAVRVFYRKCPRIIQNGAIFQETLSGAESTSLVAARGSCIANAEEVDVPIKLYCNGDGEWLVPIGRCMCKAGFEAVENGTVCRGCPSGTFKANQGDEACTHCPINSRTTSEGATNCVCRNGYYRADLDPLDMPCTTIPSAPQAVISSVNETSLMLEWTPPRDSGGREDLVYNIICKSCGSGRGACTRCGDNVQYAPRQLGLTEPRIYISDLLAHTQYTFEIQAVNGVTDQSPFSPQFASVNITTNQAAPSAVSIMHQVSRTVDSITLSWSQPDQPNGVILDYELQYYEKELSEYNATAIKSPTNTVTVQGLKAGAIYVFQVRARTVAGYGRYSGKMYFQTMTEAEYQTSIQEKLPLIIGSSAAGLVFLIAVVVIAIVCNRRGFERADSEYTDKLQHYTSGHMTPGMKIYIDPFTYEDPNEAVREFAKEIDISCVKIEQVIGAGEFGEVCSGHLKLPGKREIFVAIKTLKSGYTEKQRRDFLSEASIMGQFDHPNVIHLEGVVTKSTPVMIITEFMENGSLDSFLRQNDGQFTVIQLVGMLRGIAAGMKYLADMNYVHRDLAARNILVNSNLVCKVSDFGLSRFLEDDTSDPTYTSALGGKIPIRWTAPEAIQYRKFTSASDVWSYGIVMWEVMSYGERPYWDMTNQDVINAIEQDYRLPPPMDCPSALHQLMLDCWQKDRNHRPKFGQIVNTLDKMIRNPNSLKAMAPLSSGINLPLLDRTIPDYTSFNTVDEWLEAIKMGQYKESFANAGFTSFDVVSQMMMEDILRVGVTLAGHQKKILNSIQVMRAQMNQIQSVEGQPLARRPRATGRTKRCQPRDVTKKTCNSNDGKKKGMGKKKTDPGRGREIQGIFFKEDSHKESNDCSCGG
row,Sequence,phosphorylation enrichment
1,IDSTPYRQWFE [RPS8_Y109_YF],0.464
2,FETSHYPASPD [CTNND2_Y1217_YF],0.408
3,NPIGLYSAETL [LDB3_Y202],1.74
4,QELRRYLESGV [MICA_Y194_K196E],1.54
5,KTSGNYLPVTG [WDR19_Y28_A30P],0.435
6,IRYPPYTDWNQ [ALDH3B2_Y365_H361R],0.494
7,LHVKMYNFLRS [ADGRG7_Y760_R756H],0.778
8,KSDVVYTDWKK [ORM1_Y175],0.513
9,RLVTRYIFNRE [HLA-DQB1_Y62_Y58L_YF],0.415
10,GVPLGYPIKAS [ELN_Y206_P211S],0.333
11,DAANNYARGHY [TUBA3E_Y103_S101N],0.37
12,REVPVYISEDS [SYNM_Y460_G462S],1.07
13,GKSDPYHATTG [GJA1_Y247_S251T],0.254
14,RGSQQYRALPV [TUBB8_Y281_T285P],0.563
15,YNDSTYNQQLI [ZPLD1_Y198],0.465
16,LLFRVYGLESL [INSR_Y94],0.828
17,TNFCLYLRSLE [MTM1_Y71_R69C_YF],0.759

row,Sequence,phosphorylation enrichment
1,EVDGLYREAPI [MYL12B_Y143_E141G],0.527
2,EITSHYRHLLR [ZBTB46_Y14],0.443
3,KPNMNYDKLSR [FLI1_Y332],0.541
4,YDGKDYIALKE [HLA-A_Y147_N151K],0.648
5,PLDGEYFTLHI [TP53_Y327_Q331H],0.97
6,SHGKQYRVPSD [HHIPL2_Y395_R394Q],0.371
7,TKEPKYGGAGS [KIAA1210_Y1615_E1616G],0.44
8,AKKIKYFEGVS [PRKDC_Y682],0.44
9,AEPNIYQEKLS [USP54_Y1233_D1231N],0.462
10,YETVKYINNER [ABCB7_Y345_F346I],0.623
11,WVFNHYRWFIW [BRCA2_Y2624_I2627F_YF],0.636
12,GSIQQYTYKQE [PRG4_Y1271_I1272T],0.494
13,EPVSDYINANI [PTPN11_Y304],0.495
14,KEELAYLKKNH [KRT14_Y248],0.422
15,NFATLYLKIYH [PDE6B_Y219],0.574
16,LRVGFYESDVM [A2M_Y708],0.934

# Target: FGFR1 (UniProt P11362)
# Assay: as above
# FGFR1, sequence (P11362 whole entry, looked up): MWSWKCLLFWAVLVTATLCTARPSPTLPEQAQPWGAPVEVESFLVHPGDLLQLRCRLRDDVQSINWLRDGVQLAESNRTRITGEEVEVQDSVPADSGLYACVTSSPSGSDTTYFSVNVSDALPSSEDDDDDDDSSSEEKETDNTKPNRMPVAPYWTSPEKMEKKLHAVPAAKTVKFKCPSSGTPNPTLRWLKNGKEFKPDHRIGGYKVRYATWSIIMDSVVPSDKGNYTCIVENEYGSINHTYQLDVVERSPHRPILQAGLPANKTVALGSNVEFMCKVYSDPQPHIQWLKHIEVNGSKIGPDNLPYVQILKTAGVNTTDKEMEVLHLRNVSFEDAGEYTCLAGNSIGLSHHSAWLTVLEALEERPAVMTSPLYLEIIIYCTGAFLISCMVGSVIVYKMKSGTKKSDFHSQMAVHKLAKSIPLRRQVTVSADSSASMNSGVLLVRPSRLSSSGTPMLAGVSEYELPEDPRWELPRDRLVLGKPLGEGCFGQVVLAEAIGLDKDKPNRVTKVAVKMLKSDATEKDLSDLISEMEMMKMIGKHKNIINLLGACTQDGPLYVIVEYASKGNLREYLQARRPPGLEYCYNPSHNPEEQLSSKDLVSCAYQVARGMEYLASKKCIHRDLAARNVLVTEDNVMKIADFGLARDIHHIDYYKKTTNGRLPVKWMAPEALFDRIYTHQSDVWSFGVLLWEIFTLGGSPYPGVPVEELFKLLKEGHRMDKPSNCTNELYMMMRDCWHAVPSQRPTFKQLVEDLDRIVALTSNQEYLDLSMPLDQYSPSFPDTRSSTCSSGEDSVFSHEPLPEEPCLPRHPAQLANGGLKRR
row,Sequence,phosphorylation enrichment
1,IDSTPYRQWFE [RPS8_Y109_YF],0.494
2,FETSHYPASPD [CTNND2_Y1217_YF],0.475
3,NPIGLYSAETL [LDB3_Y202],0.451
4,QELRRYLESGV [MICA_Y194_K196E],0.62
5,KTSGNYLPVTG [WDR19_Y28_A30P],0.369
6,IRYPPYTDWNQ [ALDH3B2_Y365_H361R],0.628
7,LHVKMYNFLRS [ADGRG7_Y760_R756H],0.714
8,KSDVVYTDWKK [ORM1_Y175],0.558
9,RLVTRYIFNRE [HLA-DQB1_Y62_Y58L_YF],0.579
10,GVPLGYPIKAS [ELN_Y206_P211S],0.407
11,DAANNYARGHY [TUBA3E_Y103_S101N],0.469
12,REVPVYISEDS [SYNM_Y460_G462S],1.16
13,GKSDPYHATTG [GJA1_Y247_S251T],0.374
14,RGSQQYRALPV [TUBB8_Y281_T285P],0.803
15,YNDSTYNQQLI [ZPLD1_Y198],0.495
16,LLFRVYGLESL [INSR_Y94],0.542
17,TNFCLYLRSLE [MTM1_Y71_R69C_YF],0.512

row,Sequence,phosphorylation enrichment
1,EVDGLYREAPI [MYL12B_Y143_E141G],0.629
2,EITSHYRHLLR [ZBTB46_Y14],0.444
3,KPNMNYDKLSR [FLI1_Y332],0.416
4,YDGKDYIALKE [HLA-A_Y147_N151K],0.702
5,PLDGEYFTLHI [TP53_Y327_Q331H],5.77
6,SHGKQYRVPSD [HHIPL2_Y395_R394Q],0.344
7,TKEPKYGGAGS [KIAA1210_Y1615_E1616G],0.405
8,AKKIKYFEGVS [PRKDC_Y682],0.295
9,AEPNIYQEKLS [USP54_Y1233_D1231N],0.442
10,YETVKYINNER [ABCB7_Y345_F346I],1.22
11,WVFNHYRWFIW [BRCA2_Y2624_I2627F_YF],0.49
12,GSIQQYTYKQE [PRG4_Y1271_I1272T],0.453
13,EPVSDYINANI [PTPN11_Y304],0.454
14,KEELAYLKKNH [KRT14_Y248],0.451
15,NFATLYLKIYH [PDE6B_Y219],0.464
16,LRVGFYESDVM [A2M_Y708],1.39
